Earlier results in publication PMC5356237.

Molecular target: HER3 (Homo sapiens) (UniProt P21860)
Sequence of UniProt P21860 (P21860 20-1342): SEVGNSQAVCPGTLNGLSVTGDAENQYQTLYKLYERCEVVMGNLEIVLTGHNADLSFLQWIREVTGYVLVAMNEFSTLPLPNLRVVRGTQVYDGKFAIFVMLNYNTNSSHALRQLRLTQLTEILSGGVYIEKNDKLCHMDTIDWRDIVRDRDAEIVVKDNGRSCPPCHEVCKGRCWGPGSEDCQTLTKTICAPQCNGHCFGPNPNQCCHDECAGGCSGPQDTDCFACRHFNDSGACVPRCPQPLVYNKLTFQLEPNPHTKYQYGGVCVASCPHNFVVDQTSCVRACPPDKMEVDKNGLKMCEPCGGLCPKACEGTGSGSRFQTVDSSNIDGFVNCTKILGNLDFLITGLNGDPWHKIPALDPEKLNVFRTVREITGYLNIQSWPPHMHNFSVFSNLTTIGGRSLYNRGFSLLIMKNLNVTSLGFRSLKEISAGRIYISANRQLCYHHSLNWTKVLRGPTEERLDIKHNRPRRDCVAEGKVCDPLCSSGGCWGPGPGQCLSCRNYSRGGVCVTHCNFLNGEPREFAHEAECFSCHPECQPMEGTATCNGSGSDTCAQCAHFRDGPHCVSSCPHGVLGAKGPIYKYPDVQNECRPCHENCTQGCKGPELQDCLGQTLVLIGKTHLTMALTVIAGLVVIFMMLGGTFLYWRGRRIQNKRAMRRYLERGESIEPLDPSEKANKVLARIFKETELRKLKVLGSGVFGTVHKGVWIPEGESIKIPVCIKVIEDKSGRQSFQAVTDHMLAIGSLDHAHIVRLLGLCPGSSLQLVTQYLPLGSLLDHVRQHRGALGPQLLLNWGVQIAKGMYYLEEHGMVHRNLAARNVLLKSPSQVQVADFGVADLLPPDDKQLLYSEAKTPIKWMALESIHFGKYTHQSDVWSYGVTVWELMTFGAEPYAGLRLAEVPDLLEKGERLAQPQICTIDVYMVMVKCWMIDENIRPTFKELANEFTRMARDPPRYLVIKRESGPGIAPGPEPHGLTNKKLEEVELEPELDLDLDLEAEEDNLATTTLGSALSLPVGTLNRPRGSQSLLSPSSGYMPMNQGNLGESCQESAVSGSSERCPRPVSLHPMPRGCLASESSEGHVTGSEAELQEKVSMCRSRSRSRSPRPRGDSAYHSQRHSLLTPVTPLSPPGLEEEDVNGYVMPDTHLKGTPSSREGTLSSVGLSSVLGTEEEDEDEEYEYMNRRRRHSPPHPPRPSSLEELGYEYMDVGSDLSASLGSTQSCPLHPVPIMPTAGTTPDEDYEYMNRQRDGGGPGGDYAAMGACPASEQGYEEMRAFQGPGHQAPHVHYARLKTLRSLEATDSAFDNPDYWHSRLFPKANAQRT

Kd: 0.1 nM
Substance: NRG1b (from UniProt Q02297)
